In experiment [1] the target is NCS-1 in HEK293 cells transfected with NCS-1-pCI-neo (UniProt P62166). The experiment in a line: Western blotting of cell lysates under non-reducing conditions (disulfide dimer); HEK293 cells transfected with NCS-1, 10 mM H2O2 for 30 min or longer, with or without Ca2+/ionomycin, EGTA, or Zn2+ with chloroquine; lysis with 10 mM iodoacetamide; dimer fraction by densitometry.

Experiment [2] has as its target Chimera GRK1^N-C, fusion protein containing regulatory domains of GRK1 (GRK1 1-191,512-557) (UniProt P28327). The experiment in a line: SPR; GRK1^N-C immobilised by amine coupling on a ProteOn GLH chip (up to 12,000 RU); analyte NCS-1 or dNCS-1 0.5 to 20 μM; 25 °C; 10 mM HEPES pH 7.4, 150 mM NaCl, 1 mM CaCl2, 0.05% Tween 20; global fits by the heterogeneous ligand model (both) or the bivalent analyte model (dNCS-1).

The target of experiment [3] is Neuronal calcium sensor-1 (NCS-1), recombinant, myristoylated, reduced monomer (UniProt P62166). Briefly: redox equilibrium with GSSG/GSH, SDS-PAGE under non-reducing conditions; 1.5 µM dNCS-1, 50 mM HEPES pH 7.4, 100 mM KCl, 0.1 mM CaCl2 or 1 mM MgCl2, 0.1 mM GSSG and 8.8 µM–72.4 mM GSH, anaerobic, 35 °C, 62 h; densitometry.
Experiment [4] shares this target. Briefly: SDS-PAGE under non-reducing conditions (disulfide dimer); 20 μM reduced NCS-1 with 0.1–1000 μM H2O2, 20 mM Tris-HCl pH 8.0, 150 mM NaCl, with 1 mM MgCl2, 1 mM CaCl2, 0.1 mM ZnCl2 or their combinations (1% SDS in controls), 37 °C, 30 min; densitometry.
Experiment [5] shares this target. The experiment in a line: SEC; analytical gel filtration on Superdex 75 10/300 GL, 20 mM Tris-HCl pH 8.0, 150 mM NaCl, 1 mM DTT (non-oxidizing), with 0.1 mM ZnCl2 or 1 mM EGTA. In general terms: Size exclusion chromatography separates by hydrodynamic size, large species first.
Experiment [6] shares this target. The experiment in a line: SDS-PAGE under non-reducing conditions (disulfide dimer); preparation of dNCS-1: NCS-1 2 mg/mL dialysed against 20 mM Tris-HCl pH 8.0, 150 mM NaCl, 1 mM H2O2, 4 °C, 3 h.

Some results are limits rather than exact numbers.

Sequence of UniProt P28327 (P28327 other isoform, or with tags, fused parts or gaps mutant): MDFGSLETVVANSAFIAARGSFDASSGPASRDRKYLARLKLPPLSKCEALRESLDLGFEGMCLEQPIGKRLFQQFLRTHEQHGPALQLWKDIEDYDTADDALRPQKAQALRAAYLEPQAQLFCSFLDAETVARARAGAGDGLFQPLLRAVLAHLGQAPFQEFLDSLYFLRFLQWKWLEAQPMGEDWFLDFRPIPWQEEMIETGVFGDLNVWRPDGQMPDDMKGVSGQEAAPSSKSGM

A word on the stoichiometry N: it is the number of molecules, sites or subunits per partner or assembly. For “NCS-1 in HEK293 cells transfected with NCS-1-pCI-neo (from UniProt P62166 1-190) (natural protein)”, in experiment [1], the dimer content (prolonged incubation with Zn2+/H2O2) lay in the range of 25 to 30%; the fraction of dNCS-1 of total protein (H2O2 after Zn2+ with chloroquine) is 9%; the fraction of the dimer of total NCS-1 (10 mM H2O2, 30 min) fell in the range of 4 to 5%; the stoichiometry N is 2.

“Neuronal calcium sensor-1 (NCS-1), recombinant, myristoylated, reduced monomer (from UniProt P62166 1-190) (natural protein)”: in experiment [2], the KD 1 (heterogeneous ligand model) came out at 590 nM, the KD 2 (heterogeneous ligand model) was determined as 2700 nM, the koff 1 (heterogeneous ligand model) came out at 0.00016 s⁻¹ and the koff 2 (heterogeneous ligand model) amounted to 0.0044 s⁻¹. In experiment [2], the kon 1 (heterogeneous ligand model) amounted to 267 M⁻¹ s⁻¹ and the kon 2 (heterogeneous ligand model) came out at 1910 M⁻¹ s⁻¹. For the same substance, the dNCS-1 of total NCS-1 (Ca2+, Eh GSSG/GSH ~ −220 mV) in experiment [3] is 5 to 10%. In experiment [4], the dimer content (Zn2+-bound NCS-1, H2O2) came to 75%; the dimer fraction of total protein (the forms of Figure 4B, H2O2) is less than 30%; the stoichiometry N amounted to 2. The stoichiometry N in experiment [5] is 2. Besides, the dNCS-1 in the dialysis mixture (1 mM H2O2) in experiment [6] worked out at 80%.

The values above are taken from publication PMC8623652.
